“Also recorded” adds a separate entry of the source. Blank lines part the entries; values can stand above or below the substance they belong to.
Assays:
[1] = target: T1, full length human WASP (Homo sapiens, UniProt P42768); assay: Pyrene-actin polymerization assay: activation of full length WASP by upstream regulators; type: biochemical; conditions: for activation of FL-WASP (in words): Arp2/3 4.0 nM, actin 3.5 μM; for acceleration of actin polymerization by the activator: FL-WASP; for Barbed ends % of max.** (WASP): after subtracting baseline (WASP without activators); for Barbed ends, nM* (WASP): total concentration of Arp2/3 complex in the assay is 4.2 nM; for EC50: activation of WASP
T1 construct: Full length human WASP and N-WASP were TAP-tagged; Myc (N); made in house; host or cells: human 293 cells (Freestyle 293-F), transient transfection
T1 sequence (P42768 1-502): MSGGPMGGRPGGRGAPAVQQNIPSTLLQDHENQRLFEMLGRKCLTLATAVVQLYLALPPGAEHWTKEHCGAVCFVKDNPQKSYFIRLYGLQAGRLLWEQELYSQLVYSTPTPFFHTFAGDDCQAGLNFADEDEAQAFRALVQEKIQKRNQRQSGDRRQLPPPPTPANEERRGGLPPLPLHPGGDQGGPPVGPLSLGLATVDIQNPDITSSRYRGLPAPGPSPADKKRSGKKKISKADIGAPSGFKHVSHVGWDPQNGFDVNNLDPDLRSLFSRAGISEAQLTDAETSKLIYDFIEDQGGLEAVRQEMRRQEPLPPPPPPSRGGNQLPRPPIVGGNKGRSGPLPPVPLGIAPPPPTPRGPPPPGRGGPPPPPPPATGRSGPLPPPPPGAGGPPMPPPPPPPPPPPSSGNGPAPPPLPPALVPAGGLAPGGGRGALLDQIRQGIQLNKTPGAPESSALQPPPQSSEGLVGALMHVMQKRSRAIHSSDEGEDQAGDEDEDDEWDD
Procedure: (§1) Samples containing candidate agents (individually or as mixtures) are placed into wells on a multi-well plate. Mix 1 is added to each of the wells and mixed with the candidate agent. A sample of Mix 2 is then introduced into each well and the resulting mixture thoroughly mixed. Typically, Mix 1 and Mix 2 are mixed in 1:1 ratio (e.g., 50 μl each of Mix 1 and Mix 2).
(§2) Actin polymerization is measured as a function of time by exciting pyrene at 365 nm and by detecting an increase in fluorescence emission at 407 nm, or by exciting acrylodan at 405 nm and by detecting an increase in fluorescence emission at 460 nm. The change in fluorescence over time is utilized to determine a fluorescence parameter (e.g., maximal velocity, time to half maximal fluorescence intensity, or area under the curve of a plot of fluorescence versus time; see e.g., FIGS. 5A-5F).
(§3) Full length human WASP and N-WASP were TAP-tagged (Rigaut, et al. (1999) Nat. Biotechnology 17:1030, which is incorporated herein by reference in its entirety for all purposes) at the C-terminus (see, also Examples 2 and 3). The recombinant WASP and N-WASP were expressed in human 293 cells and then purified using a TAP-tag protocol as described in Example 6.
Arp2/3 was purified as described in Example 1. […]
The effect of PIP2 on the ability of upstream regulators to regulate FL-WASP was evaluated in a fifth set of experiments. The results are depicted in graphical format in FIG. 11.

[2] = target: T2, full length human N-WASP (Homo sapiens, UniProt O00401); assay: Pyrene-actin polymerization assay: activation of full length N-WASP by upstream regulators; type: biochemical; conditions: for Barbed ends % of max.** (N-WASP): after subtracting baseline (WASP without activators); for Barbed ends, nM* (N-WASP): total concentration of Arp2/3 complex in the assay is 4.2 nM; for EC50: activation of N-WASP; for activation of FL-N-WASP (in words): Arp2/3 4.0 nM, actin 3.5 μM
T2 construct: Full length human WASP and N-WASP were TAP-tagged; Myc (N); made in house; host or cells: human 293 cells (Freestyle 293-F), transient transfection; insert amplified from HeLa total RNA
Procedure: as §1, §2, §3
(§4) Arp2/3 was purified as described in Example 1.
Arp2/3 and actin concentrations were as described for the third experiment.
Another set of experiments similar to the fifth set were conducted using FL-N-WASP.

[3] = target: Arp2/3; assay: Activities of WASP/N-WASP proteins (Table 4); type: biochemical
From the text: The term “variant” or “analogue” generally refers to proteins that are functional equivalents to a native sequence that have similar amino acid sequences and retain, to some extent, one of the activities of the corresponding native protein. Variants/analogues include fragments that retain one or more activities of the corresponding native protein. Examples of WASP and N-WASP activity include, but are not limited to, capacity to: 1) bind Arp2/3 and actin; 2) activate the actin nucleation activity of Arp2/3 (descriptions of assays to detect nucleation activity are provided below); 3) bind an upstream regulator; 4) be regulated by one or more upstream regulators, thereby rendering the WASP or N-WASP protein able to activate the nucleation activity of Arp2/3; and 5) bind downstream regulators initiating signal transduction cascades. Some of the WASP and N-WASP proteins that are provided are able to recapitulate the full activity of WASP or N-WASP, which means that these proteins have all five of the activities just listed. […]
A third class of NPF proteins that can be utilized in some assays include WASP, N-WASP and SCAR proteins that include the WH1 domain but in which the PolyPro region is (e.g., deleted). A fourth class of NPF proteins that can be utilized in some assays are WASP, N-WASP and SCAR deletion mutants in which the PolyPro region is maintained but an N-terminal region (e.g., WH1 domain) is at least partially removed. Some proteins in this class are ones that include the B, CRIB/GBD (WASP and N-WASP), PolyPro and VCA domains, but in which some or all of the WH1 has been removed. One specific example is 98N-WASP, which includes amino acids 98-501 of SEQ ID NO:4. Another specific example is the 105WASP protein, which includes amino acids 105-501 of SEQ ID NO:2 (see FIG. 4B).
As indicated in this table, specific examples of fusion proteins that can be utilized include those that include a segment that encodes full-length WASP or N-WASP, including: Myc-WASP-TAP (SEQ ID NO:14); and Myc-N-WASP-TAP (SEQ ID NO: 16). Examples of fusion proteins that include a WASP or N-WASP deletion mutant domain include: GST-105WASP (SEQ ID NO:18); Myc-105WASP-TAP (SEQ ID NO:20); GST-tev-98N-WASP (SEQ ID NO:22); and Myc-98N-WASP-TAP (SEQ ID NO:24). The TAP tag in these particular fusion proteins has the general structure CBP-tev-ProtA (SEQ ID NO:36). Fusion proteins such as those listed in Table 4 can in some instances be utilized directly, or after one or both of the C- and N-terminal tags are removed. For example, the fusion proteins listed in Table 4 as having a TAP tag can be used once the TAP tag has been cleaved off and/or after the C-terminal tag has been removed.

[4] = Solubility of purified full-length WASP / N-WASP; type: physicochemical; conditions: purified TAP-tag protein from 293 cells
[5] = target: T3, Arp2/3 complex; assay: Actin polymerization assay comparing FL-WASP/N-WASP and truncated forms of WASP; type: biochemical, human
T3 construct: from tissue
Procedure: 1. A cellular extract containing Arp2/3 complex was prepared from an Arp2/3 source such as human platelets (see, e.g., U.S. Provisional Application No. 60/578,969, filed Jun. 10, 2004; Welch and Mitchison (Meth. Enzymology 298:52-61,1988); and Higgs, H. N. et al. (Biochemistry 38:15212-15222, 1999), all of which are incorporated herein by reference in their entirety for all purposes).
as §1, §2, §4
In a second set of experiments, the ability of various truncated forms of WASP were compared to the activity of the full-length protein. […] FL-WASP, 105 WASP and the VCA (see Example 2) domain were tested. The results of these trials were plotted to obtain EC50 values. The results are provided in FIG. 8 and in the chart below.

T2 sequence (O00401 whole entry Y76H/A201G/F223S/S242L/D248E/S252L/N296S/A333E): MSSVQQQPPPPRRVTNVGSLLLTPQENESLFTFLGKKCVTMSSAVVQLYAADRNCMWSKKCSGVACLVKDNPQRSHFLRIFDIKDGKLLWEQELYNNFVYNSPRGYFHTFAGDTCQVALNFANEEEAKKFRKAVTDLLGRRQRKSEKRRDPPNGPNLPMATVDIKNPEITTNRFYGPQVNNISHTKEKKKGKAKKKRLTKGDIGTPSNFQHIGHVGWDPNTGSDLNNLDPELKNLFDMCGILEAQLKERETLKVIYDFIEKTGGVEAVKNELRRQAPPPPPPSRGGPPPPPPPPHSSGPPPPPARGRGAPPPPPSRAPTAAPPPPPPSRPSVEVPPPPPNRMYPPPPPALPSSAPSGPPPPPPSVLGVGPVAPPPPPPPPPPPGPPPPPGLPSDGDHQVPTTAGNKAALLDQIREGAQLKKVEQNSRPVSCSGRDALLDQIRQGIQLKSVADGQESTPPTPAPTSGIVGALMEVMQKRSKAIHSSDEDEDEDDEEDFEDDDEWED

acceleration of actin polymerization by the activator ([1]; FIG. 7): 13 fold
acceleration of actin polymerization by the activator ([1]; FIG. 7 legend): 13 times
Barbed ends % of max.** (WASP) [1]: 87 % of max.
Barbed ends, nM* (WASP) [1]: 3.8 nM
EC50 [1]: 16 nM
acceleration of actin polymerization by the activator ([2]; FL-N-WASP, FIG. 7 legend): 13 times
acceleration of actin polymerization by the activator ([2]; N-WASP, FIG. 7): 13 fold
Barbed ends % of max.** (N-WASP) ([2]; N-WASP): 9 % of max.
Barbed ends, nM* (N-WASP) ([2]; N-WASP): 1.3 nM
EC50 [2]: 287 nM
Substance: Cdc42: Rho-family GTPase upstream regulator, GST-tagged (SEQ ID NO:26)
activation of FL-WASP (in words) ([1]; FIG. 9): fully activates FL-WASP; also recorded: can fully activate FL-WASP
relative potency as WASP activator (in words) ([1]; FIG. 9): more effective on WASP-stimulated actin nucleation by Arp2/3 complex than on N-WASP-stimulated actin nucleation

relative potency as WASP activator (in words) ([1]; FIG. 9): most powerful activators
Barbed ends % of max.** (WASP) [1]: 50 % of max.
Barbed ends, nM* (WASP) [1]: 2.6 nM
EC50 [1]: 12 nM
Barbed ends % of max.** (N-WASP) ([2]; N-WASP): 78 % of max.
Barbed ends, nM* (N-WASP) ([2]; N-WASP): 3.5 nM
EC50 [2]: 7 nM
Substance: Nck2: upstream regulator, GST-tagged (SEQ ID NO:46)
dose dependence of WASP activation / barbed end concentration (in words) ([1]; FIG. 9, inhibition at higher concentrations): bell shaped dependence; also recorded: inhibited
activation of FL-N-WASP (in words) ([2]; FIG. 10): can stimulate production of maximal concentration of barbed ends
relative potency as N-WASP activator (in words) ([2]; FIG. 10, Rac1 vs Cdc42 in the absence of PIP2 vesicles): significantly better activator of N-WASP than WASP; also recorded: most powerful activators
dose dependence of N-WASP activation (in words) ([2]; FIG. 10, inhibition at higher concentrations): bell shaped dose dependence curve; also recorded: inhibited

activation of FL-WASP (in words) ([1]; FIG. 9): could not activate
activation of FL-N-WASP (in words) ([2]; FIG. 10): could not activate
Substance: RhoA: GTPase, GST-tev-RhoA (SEQ ID NO:30)

activation of FL-WASP (in words) ([1]; FIG. 9): could not activate
activation of FL-N-WASP (in words) ([2]; FIG. 10): could not activate
Substance: RhoC: GTPase, GST-tev-RhoC (SEQ ID NO:28)

effect of PIP2 on WASP stimulated actin polymerization ([1]; in the presence of small GTPases or Nck, FIG. 11): strong inhibitory effect
Substance: phosphatidylinositol-4,5-bisphosphate [PIP2, reference compound]
effect of PIP2 on FL-WASP ([1]; in the absence of small GTPases or Nck, FIG. 11): no effect; also recorded: minimal, if any, effect
effect of PIP2 on Nck stimulated activation of N-WASP ([2]; Nck present, FIG. 12): inhibited; also recorded: inhibitory effect
effect of PIP2 on N-WASP activation by Rac1 or Cdc42 ([2]; small GTPases present, FIG. 12): marked synergistic effect; also recorded: synergistically; also recorded: marked synergestic effect

Second part, the substance before the results:

Substance: FL-WASP: full length human WASP (SEQ ID NO:2), nucleation promoting factor
Activate Arp2/3? [3]: Yes
Regulated By Which Upstream Regulators? [3]: Cdc42, PIP2, Nck and Rac1
solubility (in words) [4]: completely soluble
potency as Arp2/3 complex activator compared with truncated derivatives (in words) [5]: more potent Arp2/3 complex activator than certain truncated derivatives
concentration that stimulated production of maximal concentration of barbed ends ([5]; 500 nM Cdc42, 2.5 nm Arp2/3 complex, 3.5 μM actin): 3 nM
activity of FL-WASP relative to 105 WASP ([5]; 500 nM Cdc42, 2.5 nm Arp2/3 complex, 3.5 μM actin, FIG. 8): approximately 20 times
stimulation of actin polymerization by the protein alone (in words) ([5]; without activators, FIG. 7): weakly stimulate actin polymerization

Substance: Myc-N-WASP-TAP: fusion protein of full-length N-WASP (SEQ ID NO:16)
Activate Arp2/3? [3]: Yes
Regulated By Which Upstream Regulators? [3]: Cdc42, PIP2, Nck and Rac1

Substance: Myc-WASP-TAP: fusion protein of full-length WASP (SEQ ID NO:14)
Activate Arp2/3? [3]: Yes
Regulated By Which Upstream Regulators? [3]: Cdc42, PIP2, Nck and Rac1

Substance: N-WASP VCA Domain: VCA domain of N-WASP (SEQ ID NO:8)
Activate Arp2/3? [3]: Yes
Regulated By Which Upstream Regulators? [3]: None
